{
  "source": "paper PMC7505474",
  "about": "“Toll-like receptor 4-mediated inflammation triggered by extracellular IFI16 is enhanced by lipopolysaccharide binding” (PLoS Pathogens, 2020)",
  "key": {"[1]": {"assay": "In vitro pull-down assay with biotin-LPS-EB and streptavidin beads", "format": "binding, E. coli O111:B4", "conditions": "3 μg recombinant protein; 10 μg biotin-LPS-EB", "procedure": "Biotin-labeled LPS-EB (10 μg) was incubated with 30 μl of streptavidin sepharose high performance beads (GE Healthcare) for 3 h at 4°C. After a washing step, 3 μg of recombinant IFI16, PYRIN, HINA, HINB, IFI16ΔHINB, or GST were added and incubated O/N at 4°C. After five washes with 1X PBS with 0.25% Triton X-100 (Sigma-Aldrich), samples were boiled in sample buffer containing SDS and β-mercaptoethanol and centrifuged. Supernatants were separated on a 7.5% or 12% SDS-polyacrylamide gel (Bio-Rad). Gels were stained with Coomassie brilliant blue (Serva Electrophoresis GmbH) for protein visualization."}, "[2]": {"test_system": "gram-negative bacteria (E. coli, Klebsiella pneumoniae)", "assay": "Whole cell ELISA on formalin-fixed gram-negative bacteria", "format": "binding", "conditions": "formalin-fixed bacteria as solid phase", "procedure": "(§1) For whole-cell ELISA, different strains of bacteria (i.e., gram-positive: Staphylococcus aureus, Staphylococcus epidermidis and Streptococcus pyogenes; gram-negative: Escherichia coli and Klebsiella pneumonia) were grown in LB medium without antibiotics and, after washing with 1X PBS, fixed in 0.5% formalin O/N at 4°C. Subsequently, the bacteria were diluted to an OD600 of 0.5 and were used to coat microtiter plates O/N at 37°C. After blocking, increasing concentrations of IFI16 were added to the wells and incubated for 2 h at RT. Anti-IFI16 antibodies against the N-terminus of the protein and HRP-labelled anti-rabbit IgG were then added as primary and secondary antibody, respectively, and binding was detected as described above."}, "[3]": {"test_system": "gram-positive bacteria (Staphylococcus aureus, Staphylococcus epidermidis, Streptococcus pyogenes)", "assay": "Whole cell ELISA on formalin-fixed gram-positive bacteria", "format": "binding", "conditions": "formalin-fixed bacteria as solid phase", "procedure": "as §1"}, "TLR4": {"molecular_target": "T1, TLR4 (Homo sapiens, UniProt O00206)", "T1 construct": "purchased R&D Systems 478-TR-050", "T1 sequence (O00206 24-631 limits assumed)": "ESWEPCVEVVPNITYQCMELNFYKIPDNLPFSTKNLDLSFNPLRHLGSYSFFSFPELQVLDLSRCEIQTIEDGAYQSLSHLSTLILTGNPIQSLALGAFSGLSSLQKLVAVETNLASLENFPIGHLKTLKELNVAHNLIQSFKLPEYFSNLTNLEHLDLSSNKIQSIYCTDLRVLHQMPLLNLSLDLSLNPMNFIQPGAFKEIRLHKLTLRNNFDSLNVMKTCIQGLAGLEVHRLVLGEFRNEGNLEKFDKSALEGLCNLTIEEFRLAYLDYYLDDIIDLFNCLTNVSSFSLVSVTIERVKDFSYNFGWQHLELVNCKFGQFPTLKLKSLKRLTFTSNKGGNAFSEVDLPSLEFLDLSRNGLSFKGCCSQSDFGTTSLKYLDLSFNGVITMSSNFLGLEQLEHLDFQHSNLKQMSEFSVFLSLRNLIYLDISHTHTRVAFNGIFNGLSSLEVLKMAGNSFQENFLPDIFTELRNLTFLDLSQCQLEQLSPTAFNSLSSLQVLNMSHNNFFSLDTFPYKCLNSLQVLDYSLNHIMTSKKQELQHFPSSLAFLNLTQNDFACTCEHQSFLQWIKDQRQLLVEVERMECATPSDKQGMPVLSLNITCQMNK", "assay": "SPR, IFI16 over immobilized TLR4", "format": "binding", "conditions": "IFI16 31.25–1,000 nM over immobilized TLR4; read-out: equilibrium dissociation constant (KD)", "procedure": "The Biacore X100 (GE Healthcare) instrument was used for real-time binding interaction experiments. Recombinant TLR4 or TLR4/MD2 complex was covalently immobilized onto the surface of sensor CM5 (cat # BR100012, GE Healthcare) chips via amine coupling. TLR4 was diluted to a concentration of 10 μg/ml in 10 mM sodium acetate at pH 4.0, while TLR4/MD2 complex was diluted to a concentration of 20 μg/ml in the same buffer. Both proteins were injected on CM5 chips at a flow rate of 10 μl/min, upon activation of the carboxyl groups on the sensor surface with 7-min injection of a mixture of 0.2 M EDC and 0.05 M NHS. The remaining esters were blocked with 7-min injection of ethanolamine. Taking into account the ligands (TLR4 or TLR4/MD2) and analytes (IFI16, LPS-EB or IFI16/LPS-EB) molecular weights (MW) of 70 or 90 kDa, and 90, 10 or 100 kDa respectively, the appropriate ligand density (RL) on the chip was calculated according to the following equation: RL = (ligand MW/analyte MW) × Rmax × (1/Sm), where Rmax is the maximum binding signal and Sm corresponds to the binding stoichiometry. The target capture level of the TLR4 or TLR4/MD2 was of 596.0 or 1,223.9 response units (RUs), respectively. […]"}, "786-O cells [4]": {"test_system": "786-O cells", "assay": "qRT-PCR of proinflammatory cytokine mRNA in 786-O cells", "format": "cell-based, human", "conditions": "24 h, IFI16 25 μg/ml, over mock-treated cells", "procedure": "(§2) For treatments, cells were stimulated in complete medium with endotoxin-free IFI16 (25 μg/ml), endotoxin-free IFI16ΔHINB (25 μg/ml), MPLA, DPLA, LPS-F583, LPS-EB, LPS-RS, alone or pre-complexed by O/N incubation at 4°C, unless specified otherwise. Additionally, cells were stimulated with supernatants of untreated or UVB-treated U2OS or U2OS-IFI16^-/- cells alone or preincubated O/N at 4°C with LPS-EB, or LPS-RS. LPS variants or lipid A moieties were used at a concentration of 10 ng/ml. All treatments were carried out at 37°C and 5% CO2.\n(§3) Quantitative real-time PCR (qRT-PCR) was performed on a CFX96 Real-Time PCR Detection System (Bio-Rad) as previously described. Total RNA was extracted using TRI Reagent (Sigma-Aldrich), and 1 μg was retrotranscribed using an iScript cDNA Synthesis Kit (Bio-Rad). Reverse-transcribed cDNAs were amplified in duplicate using SsoAdvanced Universal SYBR Green Supermix (Bio-Rad). The glyceraldehyde 3-phosphate dehydrogenase (GAPDH) gene was used as housekeeping gene to normalize for variations in cDNA levels. The relative normalized expression after stimulation as compared to control was calculated as fold change = 2 ^-Δ(ΔCT) where ΔCT = CTtarget—CTGADPH and Δ(ΔCT) = ΔCTstimulated - ΔCTcontrol. The primer sequences are available upon request."}, "THP-1 cells": {"test_system": "THP-1 cells", "assay": "qRT-PCR of proinflammatory cytokine mRNA in THP-1 cells", "format": "cell-based, human", "conditions": "24 h, IFI16 25 μg/ml, over mock-treated cells", "procedure": "as §2, §3"}, "786-O cells [5]": {"test_system": "786-O cells", "assay": "Cytokine release by ELISA in 786-O culture supernatants", "format": "cell-based, human", "conditions": "24 h post-treatment, 25 μg/ml, alone or complexed with LPS", "procedure": "as §2\nCytokines secreted in culture supernatants after treatments were analyzed using human IL-6 DuoSet ELISA and human IL-8 DuoSet ELISA (all from R&D Systems), human TNF-α Uncoated ELISA and human IL-1β Uncoated ELISA (Thermo Fisher Scientific) according to the manufacturer’s instructions. Absorbance was measured using a Spark multimode microplate reader (Tecan)."}, "NF-κB [6]": {"test_system": "NF-κB", "assay": "ELISA-based transcription factor binding assay, 786-O nuclear extracts", "format": "cell-based, human", "conditions": "2 h, IFI16 25 μg/ml, LPS-EB 10 ng/ml", "procedure": "(§4) Nuclear extracts were prepared using NE-PER Nuclear and Cytoplasmic Extraction Reagents (Thermo Fisher Scientific), according to the manufacturer’s instructions. NF-κB binding activity to a DNA probe containing its binding consensus sequence was measured by Universal Transcription Factor Assay Colorimetric kit (Merck Millipore). […] The following biotinylated oligonucleotides were used: sense (biotin): 5’-[…]-3’; antisense: 5’-[…]-3’."}, "NF-κB [7]": {"test_system": "NF-κB", "assay": "ELISA-based transcription factor binding assay, THP-1 nuclear extracts", "format": "cell-based, human", "conditions": "2 h, IFI16 25 μg/ml, LPS-EB 10 ng/ml", "procedure": "as §4"}, "TLR4/MD2 receptor [8]": {"molecular_target": "T2, TLR4/MD2 receptor (Homo sapiens, UniProt O00206+Q9Y6Y9)", "assay": "SPR, analytes over immobilized TLR4/MD2", "format": "binding", "design": "purchased R&D Systems 3146-TM-050/CF", "procedure": "The Biacore X100 (GE Healthcare) instrument was used for real-time binding interaction experiments. Recombinant TLR4 or TLR4/MD2 complex was covalently immobilized onto the surface of sensor CM5 (cat # BR100012, GE Healthcare) chips via amine coupling. TLR4 was diluted to a concentration of 10 μg/ml in 10 mM sodium acetate at pH 4.0, while TLR4/MD2 complex was diluted to a concentration of 20 μg/ml in the same buffer. Both proteins were injected on CM5 chips at a flow rate of 10 μl/min, upon activation of the carboxyl groups on the sensor surface with 7-min injection of a mixture of 0.2 M EDC and 0.05 M NHS. The remaining esters were blocked with 7-min injection of ethanolamine. Taking into account the ligands (TLR4 or TLR4/MD2) and analytes (IFI16, LPS-EB or IFI16/LPS-EB) molecular weights (MW) of 70 or 90 kDa, and 90, 10 or 100 kDa respectively, the appropriate ligand density (RL) on the chip was calculated according to the following equation: RL = (ligand MW/analyte MW) × Rmax × (1/Sm), where Rmax is the maximum binding signal and Sm corresponds to the binding stoichiometry. The target capture level of the TLR4 or TLR4/MD2 was of 596.0 or 1,223.9 response units (RUs), respectively. […] Increasing concentrations of endotoxin-free IFI16, LPS-EB or IFI16/LPS-EB complex were flowed over the CM5 sensor chip coated with TLR4 or TLR4/MD2 at a flow rate of 30 μl/min at 25°C with an association time of 120 s for IFI16 alone and the IFI16/LPS-EB complex, and 180 s for LPS-EB, and a dissociation phase of 180 s for IFI16 and IFI16/LPS-EB complex or 600 s for LPS-EB. A single regeneration step with 50 mM NaOH was performed following each analytic cycle. All the analytes tested were diluted in the HBS-EP+ buffer (GE Healthcare). […]"}, "TLR4/MD2 receptor [9]": {"molecular_target": "T2, TLR4/MD2 receptor", "assay": "Co-immunoprecipitation with anti-TLR4 antibody from treated 786-O cells", "format": "cell-based", "design": "endogenous in cells; host or cells: 786-O", "conditions": "786-O cells stimulated 1 h; extracts untreated or DNase I-treated", "procedure": "Co-immunoprecipitation of TLR4 with interacting proteins was performed using the Dynabeads Protein G Immunoprecipitation Kit (ThermoFisher), according to the manufacturer’s instructions with minor modifications. Briefly, after lysis of treated cells, 20 μg of total cell extracts were kept as the input control, while 90 μg of total cell extracts were incubated for 1 h at RT with 2.5 μg of anti-TLR4 antibody previously conjugated with magnetic beads. The resulting complexes were then washed, eluted, denatured, and subjected to Western blotting as described above. For DNase-treated cell extracts, DNase I (Sigma Aldrich) was added at a 1:10 dilution and incubated for 15 min at RT. Images were acquired, and densitometry of the bands was performed using Quantity One software (version 4.6.9, Bio-Rad). Densitometry values were normalized using the corresponding loading controls."}},
  "data": [
    {"molecule": "IFI16: human recombinant IFI16 protein, endotoxin-free (protein) MGKKYKNIVLLKGLEVINDYHFRMVKSLLSNDLKLNLKMREEYDKIQIADLMEEKFRGDAGLGKLIKIFEDIPTLEDLAETLKKEKLKVKGPALSRKRKKEVDATSPAPSTSSTVKTEGAEATPGAQKRKKSTKEKAGPKGSKVSEEQTQPPSPAGAGMSTAMGRSPSPKTSLSAPPNSSSTENPKTVAKCQVTPRRNVLQKRPVIVKVLSTTKPFEYETPEMEKKIMFHATVATQTQFFHVKVLNTSLKEKFNGKKIIIISDYLEYDSLLEVNEESTVSEAGPNQTFEVPNKIINRAKETLKIDILHKQASGNIVYGVFMLHKKTVNQKTTIYEIQDDRGKMDVVGTGQCHNIPCEEGDKLQLFCFRLRKKNQMSKLISEMHSFIQIKKKTNPRNNDPKSMKLPQEQRQLPYPSEASTTFPESHLRTPQMPPTTPSSSFFTKKSEDTISKMNDFMRMQILKEGSHFPGPFMTSIGPAESHPHTPQMPPSTPSSSFLTTLKPRLKTEPEEVSIEDSAQSDLKEVMVLNATESFVYEPKEQKKMFHATVATENEVFRVKVFNIDLKEKFTPKKIIAIANYVCRNGFLEVYPFTLVADVNADRNMEIPKGLIRSASVTPKINQLCSQTKGSFVNGVFEVHKKNVRGEFTYYEIQDNTGKMEVVVHGRLTTINCEEGDKLKLTCFELAPKSGNTGELRSVIHSHIKVIKTRKNKKDILNPDSSMETSPDFFF", "values": [
      {"measurement": "Pull-down by biotin-LPS-EB (Coomassie band)", "setting": "[1]", "result": "readily detect a highly reproducible ~100-kDa band"},
      {"measurement": "IFI16 binding to surface of gram-negative bacteria", "setting": "[2]", "result": "strongly associated with the surface of both gram-negative bacteria species"},
      {"measurement": "IFI16 binding to gram-positive bacteria", "setting": "[3]", "result": "no IFI16 binding could be detected"},
      {"measurement": "Kd", "setting": "TLR4", "result": 130, "unit": "nM"},
      {"measurement": "IL-1β gene expression fold induction", "setting": "786-O cells [4]", "result": 13, "unit": "fold"},
      {"measurement": "IL-1β gene expression fold induction", "setting": "THP-1 cells", "result": 72, "unit": "fold"},
      {"measurement": "IL-1β release", "setting": "786-O cells [5]", "result": "neither IFI16 nor IFI16ΔHINB per se or after forming a complex with LPS induced IL-1β release"},
      {"measurement": "NF-κB binding activity fold induction vs untreated cells", "setting": "NF-κB [6]", "result": 2.2, "unit": "fold"},
      {"measurement": "NF-κB binding activity fold induction vs untreated cells", "setting": "NF-κB [7]", "result": 2.4, "unit": "fold"},
      {"measurement": "dissociation rate constant (Kd)", "setting": "TLR4/MD2 receptor [8]", "result": 0.00614, "unit": "s⁻¹"},
      {"measurement": "Ka", "setting": "TLR4/MD2 receptor [8]; association rate constant", "result": 9070, "unit": "M⁻¹ s⁻¹"},
      {"measurement": "dissociation rate constant (koff)", "setting": "TLR4/MD2 receptor [8]; dissociation rate constant", "result": 0.00614, "unit": "s⁻¹"},
      {"measurement": "Rmax", "setting": "TLR4/MD2 receptor [8]; maximum response", "result": 26.09, "unit": "RU"},
      {"measurement": "Kd", "setting": "TLR4/MD2 receptor [8]; text / Fig 8C legend, read-out: equilibrium dissociation constant (KD)", "result": 680, "unit": "nM"},
      {"measurement": "Co-immunoprecipitation with TLR4/MD2", "setting": "TLR4/MD2 receptor [9]", "result": "co-immunoprecipitated with TLR4/MD2 receptor"}
    ]}
  ]
}
